Data taken from US9523084B2, “Phosphodeoxyribosyl transferase mutant enzymes and uses thereof” (Centre National De La Recherche Scientifique, priority 2012, dated 2016).

B1: PDTT3: PDTT2 mutant with Proline at position 93 and Lysine at position 157, SEQ ID NO:38 (protein)
chain: MPKKTIYFGAGWRTDRQNKAYKEAMEALKENPTIDLENSYVPLDNQYKGIRVDEHPEYLHDKVWATATYNNDLNGIKTNDIMLGVYIPDEQGPGLGMELGYALSQGKYVLLVIPDEDYGKPISLMSWGVSDNVIKMSQLKDFNFNKPRFDFYEGAVK
modifications: amino acid sequence of PDTT3 (G92/S123/R13/P93/K157/Q91)
B2: PDTT4: PDTT2 mutant with Serine at position 93 and Lysine at position 157, SEQ ID NO:40 (protein)
chain: MPKKTIYFGAGWRTDRQNKAYKEAMEALKENPTIDLENSYVPLDNQYKGIRVDEHPEYLHDKVWATATYNNDLNGIKTNDIMLGVYIPDEQGSGLGMELGYALSQGKYVLLVIPDEDYGKPISLMSWGVSDNVIKMSQLKDFNFNKPRFDFYEGAVK
modifications: amino acid sequence of PDTT4 (G92/S123/R13/S93/K157/Q91)
B3: PDTT5: PDTT3 mutant with Arginine at position 157, SEQ ID NO:41 (protein)
chain: MPKKTIYFGAGWRTDRQNKAYKEAMEALKENPTIDLENSYVPLDNQYKGIRVDEHPEYLHDKVWATATYNNDLNGIKTNDIMLGVYIPDEQGPGLGMELGYALSQGKYVLLVIPDEDYGKPISLMSWGVSDNVIKMSQLKDFNFNKPRFDFYEGAVR
modifications: amino acid sequence of PDTT5 (G92/S123/R13/P93/R157/Q91)
B4: PDTT3b: PDTT2 mutant with Glycine (G) at position 93 and Lysine at position 157, SEQ ID NO:39 (protein)
chain: MPKKTIYFGAGWRTDRQNKAYKEAMEALKENPTIDLENSYVPLDNQYKGIRVDEHPEYLHDKVWATATYNNDLNGIKTNDIMLGVYIPDEQGGGLGMELGYALSQGKYVLLVIPDEDYGKPISLMSWGVSDNVIKMSQLKDFNFNKPRFDFYEGAVK
modifications: amino acid sequence of PDTT3b (G92/S123/R13/G93/K157/Q91)

Assay: Catalytic activity of PDTT2 to PDTT7, dATP formed (HPLC)
Assay type: biochemical
Conditions: dCTP + A ⇄ dATP + C; 2 mM dCTP, 1 mM Adenine, 37° C., MES 50 mM pH6.0
Description: In specific cases, an alternative protocol was used to perform the enzyme assay. In this second protocol, the dNxP (dNMP, or dNDP or dNTP) concentration was of only 2 mM, instead of 3 mM. All of the other conditions were identical to those of the first protocol.
The catalytic activity of the mutant enzymes PDTT2, PDTT3, PDTT3b, PDTT4, PDTT5, PDTT6, PDTT7 has been compared. Briefly, a sufficient amount of enzyme mutant necessary to obtain a linear reaction over a period of one hour at 37° C. has been mixed in 2 mM dCTP and 1 mM Adenine in a final volume of 50 μL of MES buffer 50 mM pH6.0. Assays were incubated for 60 min at 37° C. The products of the reactions were analyzed each 7 min by Rapid resolution high performance liquid chromatography using a reverse-phase column (ZORBAX Eclipse XDB-C18 2.1*50 mm […]) with a flow rate of 0.25 ml/min and a linear gradient of 1-12% CH3CN (2-25% CH3CN or 1-90% CH3CN) in 20 mM triethylammonium acetate, pH 7.5, buffer for 7 min.
With B1 the “Catalytic activity (nmol of dATP formed/min/mg of enzyme protein)” value was 2.7 nmol of dATP formed/min/mg of enzyme protein.
With B2 the “Catalytic activity (nmol of dATP formed/min/mg of enzyme protein)” value was 10.4 nmol of dATP formed/min/mg of enzyme protein.
With B3 the “Catalytic activity (nmol of dATP formed/min/mg of enzyme protein)” value was 27 nmol of dATP formed/min/mg of enzyme protein.
For B4, the “Catalytic activity (nmol of dATP formed/min/mg of enzyme protein)” value was 6.5 nmol of dATP formed/min/mg of enzyme protein.
